Laboratory results taken from PMC9482650, “Quantitative fragmentomics allow affinity mapping of interactomes” (Nature Communications, 2022).

Assays:
Assay in all cases: holdup assay
Parameters in all cases: key: below the threshold = too weak to quantify, mostly under pKd 3.1 to 4
[1] = target: T1, DLG3_2, Q92796
T1 sequence (Q92796 221-321, limits assumed, looked up): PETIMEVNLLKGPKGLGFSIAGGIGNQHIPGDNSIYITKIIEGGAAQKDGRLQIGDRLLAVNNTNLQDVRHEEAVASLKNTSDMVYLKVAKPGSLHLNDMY

[2] = target: MAGI2_4, Q86UL8
[3] = target: T2, NHERF3_3, Q5T2W1
T2 sequence (Q5T2W1 238-333, limits assumed, looked up): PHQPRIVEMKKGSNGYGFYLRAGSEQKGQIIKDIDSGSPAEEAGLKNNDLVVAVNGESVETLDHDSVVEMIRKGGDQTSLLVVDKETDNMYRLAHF

[4] = target: T3, SNTG1, Q9NSN8
T3 sequence (Q9NSN8 52-150, limits assumed, looked up): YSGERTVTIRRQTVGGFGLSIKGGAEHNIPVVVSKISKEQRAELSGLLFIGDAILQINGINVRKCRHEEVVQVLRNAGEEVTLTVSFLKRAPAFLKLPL

[5] = target: FRMPD2_2, Q68DX3
[6] = target: AHNAK1, Q09666
[7] = target: T4, MPDZ_5, O75970
T4 sequence (O75970 695-796, limits assumed, looked up): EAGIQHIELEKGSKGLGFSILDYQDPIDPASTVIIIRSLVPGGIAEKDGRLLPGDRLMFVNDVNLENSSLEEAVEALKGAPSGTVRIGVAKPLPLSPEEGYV

[8] = target: T5, PTPN13_1, Q12923
T5 sequence (Q12923 1088-1188, limits assumed, looked up): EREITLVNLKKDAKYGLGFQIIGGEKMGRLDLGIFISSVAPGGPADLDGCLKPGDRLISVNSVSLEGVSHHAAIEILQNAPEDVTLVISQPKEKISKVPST

[9] = target: T6, DFNB31_1, Q9P202
T6 sequence (Q9P202 135-233, limits assumed, looked up): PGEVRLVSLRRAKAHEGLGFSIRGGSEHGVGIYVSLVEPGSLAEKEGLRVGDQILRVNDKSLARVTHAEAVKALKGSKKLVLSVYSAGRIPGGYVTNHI

[10] = target: TJP1_3, Q07157
[11] = target: GORASP2, Q9H8Y8
[12] = target: T7, RHPN1, Q8TCX5
T7 sequence (Q8TCX5 508-602, limits assumed, looked up): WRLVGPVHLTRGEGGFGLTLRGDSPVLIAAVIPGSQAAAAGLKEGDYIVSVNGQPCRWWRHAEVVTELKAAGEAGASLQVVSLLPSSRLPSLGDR

[13] = target: T8, SNTG2, Q9NY99
T8 sequence (Q9NY99 68-166, limits assumed, looked up): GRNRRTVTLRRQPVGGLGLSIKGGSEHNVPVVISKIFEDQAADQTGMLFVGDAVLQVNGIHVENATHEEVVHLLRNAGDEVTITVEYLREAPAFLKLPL

[14] = target: T9, RADIL, Q96JH8
T9 sequence (Q96JH8 971-1071, limits assumed, looked up): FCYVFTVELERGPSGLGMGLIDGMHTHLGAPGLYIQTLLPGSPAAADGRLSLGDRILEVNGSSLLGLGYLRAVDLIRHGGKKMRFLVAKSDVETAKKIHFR

[15] = target: PTPN3, P26045
[16] = target: Inadl_9, Q8NI35
[17] = target: NHERF4_1, Q86UT5-2
[18] = target: MAGI1_2, Q96QZ7
[19] = target: DLG1_3, Q12959
[20] = target: LIMK2, P53671
[21] = target: T10, DLG3_1, Q92796
T10 sequence (Q92796 125-227, limits assumed, looked up): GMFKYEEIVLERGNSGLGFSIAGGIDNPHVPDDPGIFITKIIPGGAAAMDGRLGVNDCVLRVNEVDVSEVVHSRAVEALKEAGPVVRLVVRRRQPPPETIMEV

[22] = target: Inadl_10, Q8NI35
[23] = target: Inadl_3, Q8NI35
[24] = target: T11, LIN7A, O14910
T11 sequence (O14910 103-200, limits assumed, looked up): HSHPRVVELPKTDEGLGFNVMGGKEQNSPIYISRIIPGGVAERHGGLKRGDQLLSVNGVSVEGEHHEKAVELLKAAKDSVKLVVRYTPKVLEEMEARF

[25] = target: SCRIB_2, Q14160
[26] = target: LNX1_2, Q8TBB1
[27] = target: FRMPD2_3, Q68DX3
[28] = plain residues with an end cap or a label only (N-terminal biotin on a linker: ado-ado)
[29] = modified: phospho on T at position -1 from the C-terminal residue
[30] = modified: phospho on T at position -2 from the C-terminal residue

Sequence of SCRIB_2, Q14160 (Q14160 857-960): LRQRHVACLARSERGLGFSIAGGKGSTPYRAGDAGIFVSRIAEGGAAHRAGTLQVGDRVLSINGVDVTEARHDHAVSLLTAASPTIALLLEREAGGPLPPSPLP
Sequence of LNX1_2, Q8TBB1 (Q8TBB1 371-470): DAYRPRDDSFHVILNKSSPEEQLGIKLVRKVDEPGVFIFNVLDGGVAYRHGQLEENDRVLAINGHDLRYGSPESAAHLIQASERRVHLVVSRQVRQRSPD
Sequence of DLG1_3, Q12959 (Q12959 457-571): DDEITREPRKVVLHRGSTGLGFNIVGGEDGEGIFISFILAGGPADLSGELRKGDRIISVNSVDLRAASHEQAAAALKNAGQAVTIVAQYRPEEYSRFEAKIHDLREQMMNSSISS
Sequence of Inadl_10, Q8NI35 (Q8NI35 1673-1763): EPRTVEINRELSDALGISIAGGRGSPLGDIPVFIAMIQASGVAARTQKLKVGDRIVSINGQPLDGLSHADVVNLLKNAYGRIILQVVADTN
Sequence of NHERF4_1, Q86UT5-2 (Q86UT5 other isoform, or with tags, fused parts or gaps): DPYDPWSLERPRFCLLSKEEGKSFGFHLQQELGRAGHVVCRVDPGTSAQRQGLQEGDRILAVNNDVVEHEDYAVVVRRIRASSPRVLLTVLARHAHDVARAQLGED
Sequence of PTPN3, P26045 (P26045 505-587): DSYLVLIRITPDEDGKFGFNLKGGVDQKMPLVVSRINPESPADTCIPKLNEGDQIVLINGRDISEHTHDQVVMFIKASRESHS
Sequence of AHNAK1, Q09666 (Q09666 4-100): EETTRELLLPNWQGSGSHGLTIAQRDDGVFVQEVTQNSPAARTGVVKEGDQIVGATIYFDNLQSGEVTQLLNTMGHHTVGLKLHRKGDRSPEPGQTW
Sequence of LIMK2, P53671 (P53671 143-248): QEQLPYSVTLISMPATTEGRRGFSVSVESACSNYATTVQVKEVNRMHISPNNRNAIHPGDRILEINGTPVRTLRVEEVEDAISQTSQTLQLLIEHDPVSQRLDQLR
Sequence of Inadl_9, Q8NI35 (Q8NI35 1530-1615): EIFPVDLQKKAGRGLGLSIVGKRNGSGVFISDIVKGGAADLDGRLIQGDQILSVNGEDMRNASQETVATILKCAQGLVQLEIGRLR
Sequence of MAGI2_4, Q86UL8 (Q86UL8 772-865): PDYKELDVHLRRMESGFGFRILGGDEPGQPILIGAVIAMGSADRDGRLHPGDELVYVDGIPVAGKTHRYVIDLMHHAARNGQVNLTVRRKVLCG
Sequence of Inadl_3, Q8NI35 (Q8NI35 359-469): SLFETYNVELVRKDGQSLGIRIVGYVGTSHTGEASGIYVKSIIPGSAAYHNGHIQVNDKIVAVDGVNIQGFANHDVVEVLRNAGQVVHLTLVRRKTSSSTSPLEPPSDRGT
Sequence of MAGI1_2, Q96QZ7 (Q96QZ7 456-580): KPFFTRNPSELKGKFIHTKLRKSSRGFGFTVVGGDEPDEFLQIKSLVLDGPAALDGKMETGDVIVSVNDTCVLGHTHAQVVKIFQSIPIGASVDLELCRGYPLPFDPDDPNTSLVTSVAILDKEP
Sequence of FRMPD2_2, Q68DX3 (Q68DX3 944-1038): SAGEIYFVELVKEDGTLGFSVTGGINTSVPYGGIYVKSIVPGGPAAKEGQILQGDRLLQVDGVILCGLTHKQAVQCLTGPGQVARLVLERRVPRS
Sequence of TJP1_3, Q07157 (Q07157 416-512): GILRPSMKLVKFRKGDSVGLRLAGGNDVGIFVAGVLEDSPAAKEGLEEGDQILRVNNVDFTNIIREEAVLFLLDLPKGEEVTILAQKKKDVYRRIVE
Sequence of FRMPD2_3, Q68DX3 (Q68DX3 1073-1166): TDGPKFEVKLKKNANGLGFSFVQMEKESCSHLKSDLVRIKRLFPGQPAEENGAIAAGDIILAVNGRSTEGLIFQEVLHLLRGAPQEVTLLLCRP

## LEPAVRSSEL [SH2D3C, Q8N5H7]
[1]; [28]
  pKd: below the threshold
[2]; [28]
  pKd: below the threshold
[3]; [28]
  pKd: below the threshold
[4]; [28]
  pKd: below the threshold
[5]; [28]
  pKd: below the threshold
[6]; [28]
  pKd: below the threshold
[7]; [28]
  pKd: below the threshold
[8]; [28]
  pKd: below the threshold
[9]; [28]
  pKd: below the threshold
[10]; [28]
  pKd: below the threshold
[11]; [28]
  pKd: below the threshold
[12]; [28]
  pKd: 3.66
[13]; [28]
  pKd: below the threshold
[14]; [28]
  pKd: below the threshold
[15]; [28]
  pKd: 4.82
[16]; [28]
  pKd: below the threshold
[17]; [28]
  pKd: 4.18
[18]; [28]
  pKd: below the threshold
[19]; [28]
  pKd: below the threshold
[20]; [28]
  pKd: below the threshold
[21]; [28]
  pKd: below the threshold
[22]; [28]
  pKd: below the threshold
[23]; [28]
  pKd: below the threshold
[24]; [28]
  pKd: below the threshold
[25]; [28]
  pKd: below the threshold
[26]; [28]
  pKd: below the threshold
[27]; [28]
  pKd: below the threshold

## GQSVDLVFPV [AKIP1, Q9NQ31]
[1]; [28]
  pKd: below the threshold
[2]; [28]
  pKd: below the threshold
[3]; [28]
  pKd: below the threshold
[4]; [28]
  pKd: below the threshold
[5]; [28]
  pKd: below the threshold
[6]; [28]
  pKd: below the threshold
[7]; [28]
  pKd: below the threshold
[8]; [28]
  pKd: below the threshold
[9]; [28]
  pKd: below the threshold
[10]; [28]
  pKd: below the threshold
[11]; [28]
  pKd: 4.37
[12]; [28]
  pKd: below the threshold
[13]; [28]
  pKd: below the threshold
[14]; [28]
  pKd: 3.97
[15]; [28]
  pKd: below the threshold
[16]; [28]
  pKd: 3.5
[17]; [28]
  pKd: below the threshold
[18]; [28]
  pKd: below the threshold
[19]; [28]
  pKd: below the threshold
[20]; [28]
  pKd: below the threshold
[21]; [28]
  pKd: below the threshold
[22]; [28]
  pKd: below the threshold
[23]; [28]
  pKd: below the threshold
[24]; [28]
  pKd: below the threshold
[25]; [28]
  pKd: below the threshold
[26]; [28]
  pKd: 3.75
[27]; [28]
  pKd: below the threshold

## RRVRKLPSTTL [RPS6KA1_-1P, Q15418]
[1]; [29]
  pKd: 3.89
[2]; [29]
  pKd: 4.32
[3]; [29]
  pKd: 3.36
[4]; [29]
  pKd: 3.73
[5]; [29]
  pKd: 3.47
[6]; [29]
  pKd: 3.52
[7]; [29]
  pKd: 3.5
[8]; [29]
  pKd: 3.4
[9]; [29]
  pKd: 3.6
[10]; [29]
  pKd: below the threshold
[11]; [29]
  pKd: 3.76
[12]; [29]
  pKd: 3.62
[13]; [29]
  pKd: 4.16
[14]; [29]
  pKd: 3.52
[15]; [29]
  pKd: 4.48
[16]; [29]
  pKd: below the threshold
[17]; [29]
  pKd: 4.23
[18]; [29]
  pKd: 4.32
[19]; [29]
  pKd: 3.7
[20]; [29]
  pKd: below the threshold
[21]; [29]
  pKd: 3.57
[22]; [29]
  pKd: 3.54
[23]; [29]
  pKd: 3.76
[24]; [29]
  pKd: below the threshold
[25]; [29]
  pKd: 3.61
[26]; [29]
  pKd: below the threshold
[27]; [29]
  pKd: below the threshold

## RRVRKLPSTTL [RPS6KA1_-2P, Q15418]
[1]; [30]
  pKd: below the threshold
[2]; [30]
  pKd: below the threshold
[3]; [30]
  pKd: below the threshold
[4]; [30]
  pKd: below the threshold
[5]; [30]
  pKd: below the threshold
[6]; [30]
  pKd: below the threshold
[7]; [30]
  pKd: below the threshold
[8]; [30]
  pKd: below the threshold
[9]; [30]
  pKd: below the threshold
[10]; [30]
  pKd: below the threshold
[11]; [30]
  pKd: 3.71
[12]; [30]
  pKd: below the threshold
[13]; [30]
  pKd: below the threshold
[14]; [30]
  pKd: below the threshold
[15]; [30]
  pKd: below the threshold
[16]; [30]
  pKd: below the threshold
[17]; [30]
  pKd: 3.69
[18]; [30]
  pKd: below the threshold
[19]; [30]
  pKd: below the threshold
[20]; [30]
  pKd: below the threshold
[21]; [30]
  pKd: below the threshold
[22]; [30]
  pKd: below the threshold
[23]; [30]
  pKd: below the threshold
[24]; [30]
  pKd: below the threshold
[25]; [30]
  pKd: below the threshold
[26]; [30]
  pKd: below the threshold
[27]; [30]
  pKd: below the threshold

## SMLNRRTTPV [CACNG4, Q9UBN1]
[1]; [28]
  pKd: 4.46
[2]; [28]
  pKd: 3.52
[3]; [28]
  pKd: below the threshold
[4]; [28]
  pKd: below the threshold
[5]; [28]
  pKd: 3.55
[6]; [28]
  pKd: below the threshold
[7]; [28]
  pKd: below the threshold
[8]; [28]
  pKd: below the threshold
[9]; [28]
  pKd: 4
[10]; [28]
  pKd: below the threshold
[11]; [28]
  pKd: below the threshold
[12]; [28]
  pKd: below the threshold
[13]; [28]
  pKd: below the threshold
[14]; [28]
  pKd: below the threshold
[15]; [28]
  pKd: 4.54
[16]; [28]
  pKd: below the threshold
[17]; [28]
  pKd: below the threshold
[18]; [28]
  pKd: 4.82
[19]; [28]
  pKd: 4.39
[20]; [28]
  pKd: below the threshold
[21]; [28]
  pKd: 3.71
[22]; [28]
  pKd: below the threshold
[23]; [28]
  pKd: below the threshold
[24]; [28]
  pKd: below the threshold
[25]; [28]
  pKd: 3.53
[26]; [28]
  pKd: 3.75
[27]; [28]
  pKd: below the threshold
